Reference: patent publication CN112724255A (CHENGDU JINKUN BIOTECHNOLOGY CO LTD, dated 2021)

Key:
癌胚抗原 (CEA) 抗原 [1] = target: T1, 癌胚抗原 (CEA) 抗原 (UniProt P06731 35-685, limits assumed); experiment: ELISA, CEA antigen coated, detection with anti-His-HRP
T1 construct: The CEA antigen used for coating is not described further
T1 sequence (looked up): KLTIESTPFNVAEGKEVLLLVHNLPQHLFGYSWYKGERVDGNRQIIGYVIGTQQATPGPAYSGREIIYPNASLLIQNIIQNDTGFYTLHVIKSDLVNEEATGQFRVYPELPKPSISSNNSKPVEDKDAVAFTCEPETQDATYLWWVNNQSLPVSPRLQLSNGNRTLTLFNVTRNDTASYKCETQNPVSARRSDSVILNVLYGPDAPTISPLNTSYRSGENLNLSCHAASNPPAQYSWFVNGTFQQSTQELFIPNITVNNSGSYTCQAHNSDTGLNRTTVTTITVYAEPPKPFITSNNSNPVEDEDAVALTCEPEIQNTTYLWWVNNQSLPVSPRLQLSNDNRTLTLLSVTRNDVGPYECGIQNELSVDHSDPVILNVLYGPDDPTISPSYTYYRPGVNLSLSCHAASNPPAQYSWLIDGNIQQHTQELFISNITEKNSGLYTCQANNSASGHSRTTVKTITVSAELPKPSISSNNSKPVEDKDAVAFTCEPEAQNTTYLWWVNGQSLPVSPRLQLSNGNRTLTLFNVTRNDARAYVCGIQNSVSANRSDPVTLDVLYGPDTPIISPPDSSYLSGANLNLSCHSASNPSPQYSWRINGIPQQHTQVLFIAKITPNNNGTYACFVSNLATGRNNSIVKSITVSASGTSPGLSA

癌胚抗原 (CEA) 抗原 [2] = target: T1, 癌胚抗原 (CEA) 抗原; experiment: ELISA, CEA antigen coated; converted from 183.6 ng/ml with the relative molecular mass 27486 g/mol

B1: 96ScFv 单链抗体 (靶向癌胚抗原的小分子抗体) (scFv)
scFv: MGQVRLRESGPSLVKPSQTLSLTCTVSGFSLTKYGVSWVRQAPGKALEWLGGVSSGALTAYNTALQSRLSVTRDTSKSQFSLSLSSVTTEDTAIYYCAKSVNGDSVPYGLDYWSPGLLITVSSGGGGSGGGGSGGGGSQAVLTQPSSVSGSLGQRVSITCSGSSSNIGGNAYVGWYQQVPGSAPRLLISATTDRASGIPDRFFGSRSGNTATLTISSLQAEDEADYYCASYQSTYSGVFGSGTMLAVLGTVAAPSVFHHHHHHHLGGC
notes: Expressed in E. coli from pET22-96ScFv and purified on Ni resin; The vector adds a C-terminal His tag and a cysteine; also called CEA小分子抗体; 本发明抗体片段
癌胚抗原 (CEA) 抗原 [1]
  EC50: 0.184 µg/mL
癌胚抗原 (CEA) 抗原 [2]
  EC50: 6.7 nM
